Measured values taken from the RNAGym collection of RNA variant scans (doi:10.1073/pnas.2313332121).

B1: TPR t1 (parent)
chain: GACCAAUCUGCCCUCAGAGCUCGAGAACAUCUUCGGAUGCAGAGGAGGCAGGCUUCGGUGGCGCGAUAGCGCCAACGUCCUCAACCUCCAAUGCAUCCCACCACAUGAUGAUGCCUGAAGAGCCUUGGUUUUUUG

Variants of: B1
Assay: polymerase ribozyme fitness, log enrichment relative to wild type (log ratio); higher = more active; in vitro selection for triplet polymerase activity
How it was run: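 Fitness measures genotype enrichment against wild-type enrichment on a logarithmic scale, with inverse-variance-weighted averaging of replicates. The logarithm is base 2, and genotypes were kept only with ≥10 input reads and ≥1 read per output in Illumina sequencing. The sequenced libraries came from one triplicate in vitro selection round, including frozen incubation at −7 °C, of PCR-built, transcribed mutant libraries of each subunit of a heterodimeric triplet polymerase ribozyme.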

In order of falling “polymerase ribozyme fitness (log ratio)” value:
1. G58A C123G  2.11
2. U59A C123G  2
3. G61A C123G  1.69
4. G60A C124G  1.59
5. G60U G120A  1.38
6. G60U C124G  1.38
7. G60C A121G  1.05
8. G60U C104U  0.494
9. G60U C79U  0.386
10. G60A C62U U112G  0.38
11. G60U U78A U106A  0.283
12. G61A C104U  0.241
13. C56U U78C U87A  0.212
14. G60U G120U  0.205
15. G61A  0.0725
16. G60C A121C U130A  0.0713
17. G57U G93A  0.0639
18. G60A C82A U106A G120A  0.0586
19. G60A C79U U130A  0.0156
20. G60A A84C  -0.0134
21. G60U U132A  -0.036
22. G58C A111C U112C  -0.0453
23. G61A C70U G120U C123G  -0.0638
24. G57U  -0.128
25. G61A C72U G77U  -0.134
26. G61A C88G  -0.136
27. U59A G61U A84U  -0.153
28. C56U U131A  -0.176
29. G57C  -0.176
30. G61A U78C  -0.183
31. G60A A83C  -0.195
32. U59C A84C  -0.231
33. G60A U133A  -0.249
34. G61A A100U  -0.262
35. U59A C70U  -0.265
36. G60A U125A  -0.369
37. G60U U126C  -0.44
38. G60C C82G  -0.49
39. G60A C88U  -0.511
40. G61A G110A  -0.516
41. G60U C85A  -0.541
42. G60C C82A  -0.574
43. G60U U125G  -0.584
44. C56U G57C G69C  -0.611
45. G61A A84U C94A U131C  -0.628
46. G57A  -0.653
47. U59G C101U U131G U133A  -0.675
48. G60A G135U  -0.711
49. G61A C86U  -0.712
50. G60A A100C C104U C123A  -0.726
51. G60A G135A  -0.733
52. G61A A118G  -0.742
53. G58A C76U  -0.743
54. G58C C70U  -0.846
55. G58A C86U  -0.881
56. G61A C73A C123A  -0.908
57. G60A A90C  -0.936
58. G61A G127C  -0.956
59. U59A C62A A100C U106A C124G  -0.96
60. G60A C102A G120C U132C  -1.03
61. G57U C94G  -1.04
62. G60A C85A  -1.07
63. G60A A91U  -1.09
64. U59C G127C  -1.09
65. G60U A90U  -1.1
66. G60U C80U C123A  -1.11
67. G58C A118U G127C  -1.14
68. G61A C73G  -1.15
69. U59A G77U U130G  -1.24
70. G61A C89A  -1.25
71. G60C U130G  -1.28
72. U59C C101A  -1.32
73. G58U G69U C97A G120C  -1.35
74. U59A G117A  -1.36
75. U59A C88G  -1.44
76. G60A C114A  -1.45
77. G60C G77A  -1.47
78. G60A C88G  -1.54
79. G61A A90G G128U  -1.55
80. G60U A91G  -1.56
81. G60A U78A U92C  -1.57
82. G60A C101G  -1.57
83. C56U C104A  -1.58
84. G60C U130A U133A  -1.59
85. G60U A105C  -1.6
86. C56U G117U  -1.63
87. C56U G128U  -1.65
88. U59G C85U G113A  -1.67
89. G60C C88U G117A  -1.68
90. G60U C97U  -1.7
91. G60C G110U  -1.71
92. G57U G63C  -1.73
93. G60A C114U  -1.78
94. C56U U59A C101U G122A  -1.81
95. G57A G69C  -1.82
96. G58A C85U  -1.88
97. G57A G63U A75U U133A  -1.97
98. G57A U81A C104U  -1.98
99. G60A A100U U129A  -2
100. U59A G77U  -2.02
101. G61A C86G G93C  -2.03
102. G60U A84U C102A U134G  -2.03
103. G60U C114U  -2.1
104. G61A A84U C114U  -2.12
105. G60C G61A U96A  -2.15
106. C56U U109C  -2.15
107. G57U U78A G117A G135U  -2.21
108. C56U U116G  -2.23
109. G58C A91U  -2.24
110. G58A G69A  -2.24
111. G58U C114U  -2.25
112. G58A U81C C85G  -2.26
113. C56U C102U  -2.28
114. G57A C94G  -2.36
115. G60C C79A C88G  -2.51
116. C56U U116A  -2.51
117. G60C G110U U125G  -2.79
118. G60C C102U  -2.87
119. G60A C99U  -2.87
120. G61A A111U  -2.88
121. G57U C79A G93C U112G  -2.9
122. U59C G71A G127C U132C  -2.94
123. G60A U116C A118C  -3.05
124. C56U G110U C114U U125A  -3.23
125. G60A U92A  -3.24
126. U59G G71A  -3.25
127. G61A A66G C104A  -3.27
128. C56U U96C C99U  -3.29
129. G57U G60C  -3.3
130. G60U U92A  -3.34
131. G57A C70A  -3.43
132. C56U G110C  -3.43
133. G60C U92G  -3.59
134. U59G C62A A95U  -3.76
135. G60A C72G C79A U87C U129C  -3.89
136. G60C U81A A83C  -3.92
137. G57U C72U A83U A111U  -4.12
138. U59C C102A C115G  -4.44
139. G57C C73A G117C  -4.45
140. G60U C80G  -4.54
141. G61A G107U  -4.9
142. G60C C102U G128A  -4.97
143. U59C A103U U112C G128U U132A U133A  -5.05
144. G57C A90G G113U C115A  -5.11
145. G60U G61U C104A  -5.16
146. G60A G113C G135U  -5.16
147. G60A U78A G107C A111U  -5.18
148. G60U C97A  -5.24
149. G61A C88A C114G U116C G122A  -5.26
150. G57A U96G A105U C123G G127A  -5.35
151. G60A C62U C79G U106G  -5.51
152. G57C C82G A95G A111U C123U  -5.52
153. U59G C79A A103G  -5.54
154. G58C C70U G110C A121U  -5.63
155. G57U C82G A95G A111U C123U  -5.66
156. G60U C97A C104U U126G  -5.83
157. C56U G60A C98U G117C C124U U130A  -6.06
158. C56U G69A G113U C123G U130G  -6.22
159. C56U G61C  -6.29
160. U59C G107C U112A U133G  -6.34
161. G60U C86U A103U  -6.46
162. U59C C97A U109C C114G G122U  -6.59
163. G57A C73U U78A C99U G128C  -6.66
164. G60A C97G G117C  -6.67
165. G61A C64A  -6.82
166. C56U G69C G71A C79A G113U  -6.83
167. G58U G71A C79A A103G C115U  -7.13
